Results published in article doi:10.1101/2025.06.05.658000.
Read-outs that look alike come from different tables or passages of the source.

Assays:
Assay in all cases: ELISA
[1] = molecular target: HLA-DR (DRA1*01:01 / DRB1*01:01), soluble knob-into-hole Fc heterodimer (human)
[2] = molecular target: HLA-DR (DRA1*01:01 / DRB1*13:01), soluble knob-into-hole Fc heterodimer (human)
[3] = molecular target: HLA-DR (DRA1*01:01 / DRB1*13:02), soluble knob-into-hole Fc heterodimer (human)
[4] = molecular target: HLA-DR (DRA1*01:01 / DRB1*13:01), soluble knob-into-hole Fc heterodimer (human); remark: listed apart in the source
The majority of HLA-DR = molecular target: The majority of HLA-DR
[5] = molecular target: HLA-DR (DRA1*01:01 / DRB1*13:02), soluble knob-into-hole Fc heterodimer (human); remark: listed apart in the source

Substance | IC50 [1] [nM] | affinity [2] [nM] | affinity [3] [µM] | affinity [4] [nM] | affinity (The majority of HLA-DR) [nM] | affinity [5] [nM]
SARS-CoV-2 RBD peptide RBD487-501 (from UniProt P0DTC2 487-501) | 293 |  |  |  |  | 
SARS-CoV-2 RBD peptide RBD491-505 (from UniProt P0DTC2 491-505) | 152 |  |  |  |  | 
biotin-labeled human Class II-associated Invariant Chain Peptide (Bio-CLIP) |  | 300 | 4 | < 300 | 0 to 25 | < 300
